From US20190054150A1 (AEQUUS BIOPHARMA, published 2019)
Square brackets hold non-standard residues; d marks the D form. Ends that are not written are not given here. Nle = CCCC[C@H](N)C(=O)O; βAla = NCCC(=O)O

Tests used:
Experiment in all cases: cell-based or functional assay
MCR1 = MCR1 (human, UniProt Q01726 1-317)
MCR3 = MCR3 (human, UniProt P41968 1-323)
MCR4 = MCR4 (human, UniProt P32245 1-332)
MCR5 = MCR5 (human, UniProt P33032 1-325)
Sequence of MCR5 (P33032 whole entry): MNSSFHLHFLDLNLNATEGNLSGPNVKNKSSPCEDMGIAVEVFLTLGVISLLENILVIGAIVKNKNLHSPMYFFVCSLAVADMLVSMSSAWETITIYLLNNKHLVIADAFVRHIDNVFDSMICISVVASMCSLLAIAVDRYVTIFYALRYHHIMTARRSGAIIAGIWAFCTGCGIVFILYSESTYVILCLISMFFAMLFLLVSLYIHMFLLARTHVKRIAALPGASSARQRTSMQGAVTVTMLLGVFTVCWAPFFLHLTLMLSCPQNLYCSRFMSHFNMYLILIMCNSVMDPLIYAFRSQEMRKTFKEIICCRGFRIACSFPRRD

Sequence of MCR3 (P41968 whole entry): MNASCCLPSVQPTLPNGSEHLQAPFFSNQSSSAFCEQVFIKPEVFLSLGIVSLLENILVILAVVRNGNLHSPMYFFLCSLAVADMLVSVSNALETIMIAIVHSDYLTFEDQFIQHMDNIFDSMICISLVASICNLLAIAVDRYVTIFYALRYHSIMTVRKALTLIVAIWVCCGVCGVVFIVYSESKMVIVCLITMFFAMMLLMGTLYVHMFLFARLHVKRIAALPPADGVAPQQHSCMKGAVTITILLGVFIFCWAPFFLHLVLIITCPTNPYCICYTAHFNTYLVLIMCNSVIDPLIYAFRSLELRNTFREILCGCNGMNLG
Sequence of MCR1 (Q01726 whole entry): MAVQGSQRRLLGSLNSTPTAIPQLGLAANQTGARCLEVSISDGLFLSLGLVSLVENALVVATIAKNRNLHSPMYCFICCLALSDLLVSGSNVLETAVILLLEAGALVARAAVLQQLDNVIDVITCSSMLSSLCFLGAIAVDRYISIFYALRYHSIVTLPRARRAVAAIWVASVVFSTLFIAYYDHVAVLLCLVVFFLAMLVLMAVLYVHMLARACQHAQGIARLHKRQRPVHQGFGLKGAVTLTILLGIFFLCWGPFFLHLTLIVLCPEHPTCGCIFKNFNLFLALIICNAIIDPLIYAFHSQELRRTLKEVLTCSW
Sequence of MCR4 (P32245 whole entry): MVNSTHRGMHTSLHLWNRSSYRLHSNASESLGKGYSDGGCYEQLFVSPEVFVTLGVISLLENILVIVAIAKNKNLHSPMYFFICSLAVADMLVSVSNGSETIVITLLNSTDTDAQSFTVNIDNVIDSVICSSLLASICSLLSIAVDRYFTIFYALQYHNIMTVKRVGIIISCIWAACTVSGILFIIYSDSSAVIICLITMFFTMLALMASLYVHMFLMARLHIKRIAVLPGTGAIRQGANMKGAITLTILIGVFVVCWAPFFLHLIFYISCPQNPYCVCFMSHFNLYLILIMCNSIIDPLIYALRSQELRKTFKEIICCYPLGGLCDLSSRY

Row | Binder | MCR1 EC50 (nM); cAMP production, LANCE cAMP assay, CHO-MCR1 cells, cell pool B (MCR1) | MCR3 EC50 (nM); cAMP production, LANCE cAMP assay, CHO-MCR3 cells, cell pool B (MCR3) | MCR4 EC50 (nM); cAMP production, LANCE cAMP assay, CHO-MCR4 cells, cell pool B (MCR4) | further results
1 | YVMGHFRWDRFGKRSYSMEHFRWGKPVGKKRRPVKVYP [γ-MSH-ACTH1-24] |  |  |  | MCR1 EC50 (nM); cAMP production, LANCE cAMP assay, CHO-MCR1 cells, cell pool A (MCR1): 22 nM; MCR3 EC50 (nM); cAMP production, LANCE cAMP assay, CHO-MCR3 cells, cell pool A (MCR3): 38 nM
2 | [Nle]EH[dF]RW[βAla]G[βAla][Nle]EH[dF]RW [NDP-ACTH4-9-βAla-G-βAla-NDP-ACTH4-9] | 0.35 nM | 25 nM | 6.7 nM | 
3 | XEHXRWAGASYSMEHFRWGKPVGKKRRPVKVYP (Nle, dPhe and β-Ala residues as printed: Nle-EH-dPhe-RW-β-Ala-G-β-Ala-SYSMEHFRWGKPVGKKRRPVKVYP) [NDP-ACTH4-9-βAla-G-βAla-ACTH1-24] | 0.16 nM | 5.5 nM | 2.4 nM | 
4 | XEHXRWSYSMEHFRWGKPVGKKRRPVKVYP (Nle at position 1 and dPhe at position 4 as printed: Nle-EH-dPhe-RWSYSMEHFRWGKPVGKKRRPVKVYP) [NDP-ACTH4-9-ACTH1-24] | 0.17 nM | 6.8 nM | 0.8 nM | 
5 | SYSXEHXRWGKPVGKKRRPVKVYP (Nle and DPhe as printed: SYS-Nle-EH-DPhe-RWGKPVGKKRRPVKVYP) [NDP-ACTH] |  |  |  | MCR5 EC50 (nM); cAMP production, LANCE cAMP assay, CHO-MCR5 cells, cell pool C (MCR5): 1.1 nM; MCR1 EC50 (nM); cAMP production, LANCE cAMP assay, CHO-MCR1 cells, cell pool C (MCR1): 0.11 nM; MCR3 EC50 (nM); cAMP production, LANCE cAMP assay, CHO-MCR3 cells, cell pool C (MCR3): 0.21 nM; MCR4 EC50 (nM); cAMP production, LANCE cAMP assay, CHO-MCR4 cells, cell pool C (MCR4): 0.22 nM
6 | SYSMEHFRWGKPVGKKRRAVKVYP [ACTH1-24-point-5] |  |  |  | MCR5 EC50 (nM); cAMP production, LANCE cAMP assay, CHO-MCR5 cells, cell pool C (MCR5): > 100 nM; MCR1 EC50 (nM); cAMP production, LANCE cAMP assay, CHO-MCR1 cells, cell pool C (MCR1): 0.31 nM; MCR3 EC50 (nM); cAMP production, LANCE cAMP assay, CHO-MCR3 cells, cell pool C (MCR3): 10 nM; MCR4 EC50 (nM); cAMP production, LANCE cAMP assay, CHO-MCR4 cells, cell pool C (MCR4): 60 nM
7 | SYSMEHFRWGKPVGAARRPVKVYP [ACTH1-24-point-1-2] |  |  |  | MCR5 EC50 (nM); cAMP production, LANCE cAMP assay, CHO-MCR5 cells, cell pool C (MCR5): 275 nM; MCR1 EC50 (nM); cAMP production, LANCE cAMP assay, CHO-MCR1 cells, cell pool C (MCR1): 0.43 nM; MCR3 EC50 (nM); cAMP production, LANCE cAMP assay, CHO-MCR3 cells, cell pool C (MCR3): 10 nM; MCR4 EC50 (nM); cAMP production, LANCE cAMP assay, CHO-MCR4 cells, cell pool C (MCR4): 62 nM
8 | SYSMEHFRWGKPVGKKAAAVKVYP [ACTH1-24-point-3-5] |  |  |  | MCR5 EC50 (nM); cAMP production, LANCE cAMP assay, CHO-MCR5 cells, cell pool C (MCR5): > 100 nM; MCR1 EC50 (nM); cAMP production, LANCE cAMP assay, CHO-MCR1 cells, cell pool C (MCR1): 0.54 nM; MCR3 EC50 (nM); cAMP production, LANCE cAMP assay, CHO-MCR3 cells, cell pool C (MCR3): 14 nM; MCR4 EC50 (nM); cAMP production, LANCE cAMP assay, CHO-MCR4 cells, cell pool C (MCR4): 128 nM
9 | SYSMEHFRWGKPVGKKRRPVKVYPSYS[Nle]EH[dF]RWGKPV (ends and bridges not checked) [ACTH1-24-NDP-α-MSH] |  |  |  | MCR5 EC50 (nM); cAMP production, LANCE cAMP assay, CHO-MCR5 cells, cell pool C (MCR5): 24 nM; MCR1 EC50 (nM); cAMP production, LANCE cAMP assay, CHO-MCR1 cells, cell pool C (MCR1): 0.28 nM; MCR3 EC50 (nM); cAMP production, LANCE cAMP assay, CHO-MCR3 cells, cell pool C (MCR3): 1.5 nM; MCR4 EC50 (nM); cAMP production, LANCE cAMP assay, CHO-MCR4 cells, cell pool C (MCR4): 2.3 nM
10 | SYSMEHFRWGKPVGKKRRAVKVYPSYS[Nle]EH[dF]RWGKPV [ACTH1-24-point-5-NDP-α-MSH] |  |  |  | MCR5 EC50 (nM); cAMP production, LANCE cAMP assay, CHO-MCR5 cells, cell pool C (MCR5): 28 nM; MCR1 EC50 (nM); cAMP production, LANCE cAMP assay, CHO-MCR1 cells, cell pool C (MCR1): 0.44 nM; MCR3 EC50 (nM); cAMP production, LANCE cAMP assay, CHO-MCR3 cells, cell pool C (MCR3): 1.5 nM; MCR4 EC50 (nM); cAMP production, LANCE cAMP assay, CHO-MCR4 cells, cell pool C (MCR4): 3.4 nM
11 | SYSMEHFRWGKPVGAARRPVKVYPSYS[Nle]EH[dF]RWGKPV (ends and bridges not checked) [ACTH1-24-point-1-2-NDP-α-MSH] |  |  |  | MCR5 EC50 (nM); cAMP production, LANCE cAMP assay, CHO-MCR5 cells, cell pool C (MCR5): 21 nM; MCR1 EC50 (nM); cAMP production, LANCE cAMP assay, CHO-MCR1 cells, cell pool C (MCR1): 0.28 nM; MCR3 EC50 (nM); cAMP production, LANCE cAMP assay, CHO-MCR3 cells, cell pool C (MCR3): 0.72 nM; MCR4 EC50 (nM); cAMP production, LANCE cAMP assay, CHO-MCR4 cells, cell pool C (MCR4): 1.4 nM
12 | SYSMEHFRWGKPVGKKAAAVKVYPSYS[Nle]EH[dF]RWGKPV [ACTH1-24-point-3-5-NDP-α-MSH] |  |  |  | MCR5 EC50 (nM); cAMP production, LANCE cAMP assay, CHO-MCR5 cells, cell pool C (MCR5): 25 nM; MCR1 EC50 (nM); cAMP production, LANCE cAMP assay, CHO-MCR1 cells, cell pool C (MCR1): 0.32 nM; MCR3 EC50 (nM); cAMP production, LANCE cAMP assay, CHO-MCR3 cells, cell pool C (MCR3): 0.92 nM; MCR4 EC50 (nM); cAMP production, LANCE cAMP assay, CHO-MCR4 cells, cell pool C (MCR4): 2.2 nM
13 | SYSMEHFRWGKPVGKKRRPVKVYPNGAEDESAEAFPLEFKR [ACTH1-39] | 0.55 nM | 18 nM | 31 nM | 
14 | YVMGHFRWDRFGRRNSSSSGSSGAGQSYSMEHFRWGKPVGKKRRPVKVYP [γ-MSH-ACTH1-24 linker without cleavable site] |  |  |  | MCR1 EC50 (nM); cAMP production, LANCE cAMP assay, CHO-MCR1 cells, cell pool A (MCR1): 11 nM; MCR3 EC50 (nM); cAMP production, LANCE cAMP assay, CHO-MCR3 cells, cell pool A (MCR3): 16 nM
15 | YVMGHFRWDRFGSYSMEHFRWGKPVGKKRRPVKVYP [γ-MSH-ACTH1-24 without linker and cleavage site] |  |  |  | MCR1 EC50 (nM); cAMP production, LANCE cAMP assay, CHO-MCR1 cells, cell pool A (MCR1): 12 nM; MCR3 EC50 (nM); cAMP production, LANCE cAMP assay, CHO-MCR3 cells, cell pool A (MCR3): 33 nM
16 | NDP-α-MSH-linker-Furin site-linker-ACTH1-24 (peptide) peptide: Ac-SYS[Nle]EH[dF]RWGKPVGGGGSRRKRGGGGSSYSMEHFRWGKPVGKKRRPVKVYP | 0.333 nM | 4 nM | 6.5 nM | 
17 | YVMGHFRWDRFGRRNSSSSGSSGAGQKR [γ-MSH with linker] | 19 nM | 11 nM | > 100 nM | 
18 | NDP-α-MSH-linker-MMP site-linker-ACTH1-24 (peptide) peptide: Ac-SYS[Nle]EH[dF]RWGKPVGGGGSPLGLWAGGGGSSYSMEHFRWGKPVGKKRRPVKVYP | 2.4 nM | 17 nM | 14 nM | 
19 | ACTH1-24-linker-Furin site-linker-NDP-α-MSH (ends and bridges not checked) peptide: SYSMEHFRWGKPVGKKRRPVKVYPGGGGSRRKRGGGGSSYS[Nle]EH[dF]RWGKPV | 0.202 nM | 0.453 nM | 1.9 nM | 
20 | ACTH1-24-linker-MMP site-linker-NDP-α-MSH (ends and bridges not checked) peptide: SYSMEHFRWGKPVGKKRRPVKVYPGGGGSPLGLWAGGGGSSYS[Nle]EH[dF]RWGKPV | 1.6 nM | 4.7 nM | 5.8 nM | 
21 | ACTH1-24-linker-MMP (broad) site-linker-NDP-α-MSH (ends and bridges not checked) peptide: SYSMEHFRWGKPVGKKRRPVKVYPGGGGSPAGLVAGGGGSSYS[Nle]EH[dF]RWGKPV | 0.528 nM | 1 nM | 4.8 nM | MCR1 EC50 (nM); cAMP production, LANCE cAMP assay, CHO-MCR1 cells, cell pool B (second value printed below the first) (MCR1): 0.36 nM
22 | NDP-α-MSH-linker-MMP (broad) site-linker-ACTH1-24 (peptide) peptide: Ac-SYS[Nle]EH[dF]RWGKPVGGGGSPAGLVAGGGGSSYSMEHFRWGKPVGKKRRPVKVYP | 0.295 nM | 1.5 nM | 1.9 nM | 
23 | SYSMEHFRWGKPVGKKRRPVKVYPGGGGSRRKRSYS[Nle]EH[dF]RWGKPV [ACTH1-24-proconvertase-NDP-α-MSH] | 0.44 nM | 0.51 nM | 1.6 nM | 
24 | ACTH1-24-natural N-terminal spacer-NDP-α-MSH (ends and bridges not checked) peptide: SYSMEHFRWGKPVGKKRRPVKVYPPLPEGGPEPRSDGAKPGPREGKRSYS[Nle]EH[dF]RWGKPV | 0.63 nM | 0.62 nM | 1.6 nM | 
25 | ACTH1-24-natural C-terminal spacer-NDP-α-MSH (ends and bridges not checked) peptide: SYSMEHFRWGKPVGKKRRPVKVYPELTGQRLREGDGPDGPADDGAGASYS[Nle]EH[dF]RWGKPV | 0.8 nM | 1.66 nM | 8.7 nM | 
26 | SYSMEHFRWGKPVGKKRRPVKVYPGGGGSRRKRSYSMEHFRWGKPV [ACTH1-24-proconvertase-α-MSH] | 0.92 nM | 6.1 nM | 26 nM | 
27 | ACTH1-24-natural N-terminal spacer-α-MSH (peptide) peptide: SYSMEHFRWGKPVGKKRRPVKVYPPLPEGGPEPRSDGAKPGPREGKRSYSMEHFRWGKPV | 0.82 nM | 6.2 nM | > 20 nM | 
28 | ACTH1-24-natural C-terminal spacer-α-MSH (peptide) peptide: SYSMEHFRWGKPVGKKRRPVKVYPELTGQRLREGDGPDGPADDGAGASYSMEHFRWGKPV | 1.02 nM | 22 nM | > 20 nM | 
